US20210147829A1, “VARIANT NUCLEOTIDE LIBRARY” (The University of Manchester, priority 2017, published 2021)
Where a chain is given by its changes, count along the chain named. In names and notes the source's numbering stands.

B1: WT: Wild type monoamine oxidase-N (MAO-N, A. niger), an amine-oxidising biocatalyst (protein, UniProt P46882 1-495, looked up)
Monoamine oxidase N: MTSRDGYQWTPETGLTQGVPSLGVISPPTNIEDTDKDGPWDVIVIGGGYCGLTATRDLTVAGFKTLLLEARDRIGGRSWSSNIDGYPYEMGGTWVHWHQSHVWREITRYKMHNALSPSFNFSRGVNHFQLRTNPTTSTYMTHEAEDELLRSALHKFTNVDGTNGRTVLPFPHDMFYVPEFRKYDEMSYSERIDQIRDELSLNERSSLEAFILLCSGGTLENSSFGEFLHWWAMSGYTYQGCMDCLISYKFKDGQSAFARRFWEEAAGTGRLGYVFGCPVRSVVNERDAARVTARDGREFAAKRLVCTIPLNVLSTIQFSPALSTERISAMQAGHVNMCTKVHAEVDNKDMRSWTGIAYPFNKLCYAIGDGTTPAGNTHLVCFGTDANHIQPDEDVRETLKAVGQLAPGTFGVKRLVFHNWVKDEFAKGAWFFSRPGMVSECLQGLREKHRGVVFANSDWALGWRSFIDGAIEEGTRAARVVLEELGTKREVKARL
B2: D1 N336S: MAO-N variant D1 with mutation N336S, Reference {Alexeeva 2002} (protein, UniProt P46882 1-495, looked up, variant N336S)
Monoamine oxidase N: B1 Monoamine oxidase N with N336S

Tests used:
[1] = Liquid phase kinetic assay of purified MAO-N variants, substrate benzylamine; format: biochemical
Experimental: (§1) Selected variants were overexpressed by BL21 (DE3) E. coli strain in 700 mL of LB medium with 100 μg mL^−1 ampicillin. 0.5 mM of IPTG was introduced to the culture when OD600 reached 0.6 and the culture was incubated at 25° C., 180 rpm. Cells were harvested after 16-20 hours and purified using 5 mL Histrap FF crude column (GE Healthcare) with an AKTA Explorer 100 protein purification system as described (55).
(§2) A range of amine stock solutions including α-methylbenzylamine, N-amylamine, butylamine, benzylamine or cyclohexylamine (all from Sigma) were prepared in 0.1 M potassium phosphate pH 7.7. The final concentration range of the substrate was between 0.5 mM to 100 mM. A colourimetric assay solution was made up by dissolving Pyrogallol red (0.3 mM final concentration) in 0.1 M potassium phosphate, pH 7.7. The assay was conducted by combining 35 μL of substrate solution, 50 μL of Pyrogallol red solution and 5 μL of horseradish peroxidase (1 mg mL^−1) in a flat bottom 96-well plate and started by adding 110 μL of purified MAO-N. Assay progress was monitored at 550 nm at 25° C. in a Molecular Devices Spectramex M2 plate reader. The data were analysed using Prism7 (GraphPad) which was also used to calculate kinetic parameters such as kcat, km and Vmax.

[2] = cited from earlier work; for kcat, substrate AMBA: Table 3
[3] = Liquid phase kinetic assay of purified MAO-N variants, substrate N-amylamine; format: biochemical
Experimental: as §1, §2

[4] = MAO-N variant activity to native primary amine substrates (taken together); format: biochemical; conditions: range over native substrates
Experimental: as §1, §2

[5] = Liquid phase kinetic assay of purified MAO-N variants, substrate butylamine; format: biochemical
Experimental: as §1, §2

[6] = Liquid phase kinetic assay of purified MAO-N variants, substrate α-methylbenzylamine; format: biochemical; conditions: Table 4; kcat for α-methylbenzylamine
Experimental: as §1, §2

[7] = Table 4, α-methylbenzylamine, Reference {Alexeeva 2002}

Molecule	kcat, substrate BZA ([1]; Table 3)	kcat Benzylamine (BZA) ([1]; Table 5)	kcat, substrate AMBA ([2]; Reference {Alexeeva 2002})	kcat [2, 7]	kcat towards α-MBA ([2]; wild type, literature value)	kcat, substrate AA ([3]; Table 3)	kcat N-amylamine (AA) ([3]; Table 5)	kcat for several primary amine substrates ('wild type speed') [4]	kcat, substrate BTA ([5]; Table 3)	kcat Butylamine (BTA) ([5]; Table 5)	Improvement over wild type [6]	Km [2, 7]
B1	4.37 s⁻¹	4.37 s⁻¹	0.00283 s⁻¹	0.00283 s⁻¹	0.00283 s⁻¹	6.45 s⁻¹	6.45 s⁻¹	4.37 to 6.57 s⁻¹	6.57 s⁻¹	6.57 s⁻¹		
B2			0.133 s⁻¹	0.133 s⁻¹							40-fold	400 µM
